# Reference: patent publication EP2918281A1 (Max-Planck-Gesellschaft zur Förderung der Wissenschaften …, dated 2015)
# Target: HIV-1 protease (EC 3.4.23.16) (HIV-1)
# Experiment: cell-based or functional assay
binder,measurement,value
"inhibitor 04 (other, not shown: small tags and cut ends) KMEGKSMLKLSHVLAFLLLASLFQSLMARDLISDGIEVLQLPVENEGESVFCPGKLSWPELVGMPAGYAKAIIEKENSIVHDVRLLLPGMVKPANYVCGRVFLVVDLKLIVQIPPSMG",IC50 (enzyme inhibition),0.67 µM
